According to US20180022822A1 (MABIMMUNE DIAGNOSTICS, published 2018):

What was measured:
[1] = target: T1, FAP peptide 125 (497-ALKNIQLPKEEIKKL-511) (human); assay: pepscan, spotted 15-mer peptides
T1 construct: Linear 15-mer spotted on a nitrocellulose membrane
T1 peptide: ALKNIQLPKEEIKKL
Method: (§1) Binding capacity of the antibodies was tested on these peptides spotted onto a nitrocellulose membrane (JPT Peptide Technologies, Berlin, Germany) and using HRP-conjugated donkey anti-human IgG secondary antibody (Jackson immunoResearch, Newmarket, UK) followed by detection of HRP activity (FIGS. 4A and C). In brief, epitope mapping was performed using scans of overlapping peptides. The entire sequences of FAP were synthesized as a total of 188 linear 15-mer peptides with an 11 amino acid overlap between individual peptides. Those peptides were spotted onto nitrocellulose membranes (JPT Peptide Technologies, Berlin, Germany). The membrane was activated for 5 min in methanol and washed in TBS for 10 min at RT. Non-specific binding sites were blocked for 2 h at RT with Roti®-Block (Carl Roth GmbH+Co. KG, Karlsruhe, Germany). Human antibodies (1 μg/ml) were incubated in Roti®-Block for 3 h at RT. Binding of primary antibody was determined using HRP-conjugated donkey anti-human IgG secondary antibody. Blots were developed and evaluated using ECL and ImageQuant 350 detection (GE Healthcare, Otelfingen, Switzerland).

[2] = target: T2, FAP peptide 126 (501-IQLPKEEIKKLEVDE-515) (human); assay: pepscan, spotted 15-mer peptides
T2 construct: Linear 15-mer spotted on a nitrocellulose membrane
T2 peptide: IQLPKEEIKKLEVDE
Method: as §1

[3] = target: T3, recombinant human Fibroblast Activation Protein (FAP) with N-terminus 6x histidine tag (human, UniProt Q12884 26-760); assay: direct ELISA: rFAP directly coated (FAP)
T3 construct: Bought protein; also called rFAP; rhFAP
T3 sequence: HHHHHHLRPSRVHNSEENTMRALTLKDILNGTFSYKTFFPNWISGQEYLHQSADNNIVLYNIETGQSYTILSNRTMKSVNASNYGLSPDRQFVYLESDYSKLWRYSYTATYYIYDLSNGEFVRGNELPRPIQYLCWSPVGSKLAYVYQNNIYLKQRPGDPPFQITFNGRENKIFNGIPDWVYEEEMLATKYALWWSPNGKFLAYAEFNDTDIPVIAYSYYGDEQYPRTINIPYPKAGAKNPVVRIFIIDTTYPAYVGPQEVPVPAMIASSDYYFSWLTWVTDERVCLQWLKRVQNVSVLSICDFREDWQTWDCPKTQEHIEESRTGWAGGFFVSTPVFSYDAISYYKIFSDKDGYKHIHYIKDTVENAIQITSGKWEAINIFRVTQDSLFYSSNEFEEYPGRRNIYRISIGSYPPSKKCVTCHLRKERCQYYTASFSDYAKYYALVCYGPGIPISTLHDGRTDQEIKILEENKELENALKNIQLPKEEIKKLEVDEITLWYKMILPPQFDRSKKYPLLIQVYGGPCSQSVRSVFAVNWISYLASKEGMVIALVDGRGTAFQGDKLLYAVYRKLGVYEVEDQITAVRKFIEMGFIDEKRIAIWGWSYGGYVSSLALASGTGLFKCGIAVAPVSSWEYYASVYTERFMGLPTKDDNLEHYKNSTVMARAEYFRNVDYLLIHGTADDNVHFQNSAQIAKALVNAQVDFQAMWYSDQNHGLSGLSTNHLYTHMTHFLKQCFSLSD

[4] = target: T4, cFAP (mixture of three FAP peptides) (human); assay: direct ELISA: coated mixture of three FAP peptides (cFAP)
T4 construct: A mixture of three separate peptides coated together, not a complex; The three chains are the three components; also called directly coated FAP peptides mixture
T4 peptide 1: HYIKDTVENAIQITS
T4 peptide 2: GWSYGGYVSSLALAS
T4 peptide 3: QVDFQAMWYSDQNHGL

[5] = target: T5, bovine serum albumin (BSA) (bovine, UniProt P02769 25-607); assay: direct ELISA: BSA coated directly on the plate [continued) F]
T5 construct: Negative control antigen in the ELISAs
T5 sequence (P02769 25-607 limits assumed): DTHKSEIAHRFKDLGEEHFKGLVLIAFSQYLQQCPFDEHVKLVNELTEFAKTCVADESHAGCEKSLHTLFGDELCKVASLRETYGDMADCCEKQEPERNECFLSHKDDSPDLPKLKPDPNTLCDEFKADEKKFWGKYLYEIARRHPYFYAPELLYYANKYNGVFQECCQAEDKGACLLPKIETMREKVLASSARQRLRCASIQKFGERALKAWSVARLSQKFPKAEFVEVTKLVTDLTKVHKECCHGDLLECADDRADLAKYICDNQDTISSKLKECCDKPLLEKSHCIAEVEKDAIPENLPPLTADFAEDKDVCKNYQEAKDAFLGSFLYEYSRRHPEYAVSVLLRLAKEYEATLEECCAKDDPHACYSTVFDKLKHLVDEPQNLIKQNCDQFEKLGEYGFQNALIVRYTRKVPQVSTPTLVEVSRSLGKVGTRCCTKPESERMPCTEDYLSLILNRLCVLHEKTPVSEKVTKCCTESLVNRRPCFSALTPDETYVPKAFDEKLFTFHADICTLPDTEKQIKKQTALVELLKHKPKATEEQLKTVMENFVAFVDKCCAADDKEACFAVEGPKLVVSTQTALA

[6] = target: T3, recombinant human Fibroblast Activation …; assay: capture ELISA: His-tagged rFAP captured by coated anti-His antibody (sFAP)
Method: (§2) For the capture ELISA, the microplates were coated with mouse anti-His monoclonal antibody (Clontech) diluted to a concentration of 3 μg/ml in PBS, the plates were then blocked, FAP or BSA were diluted to a concentration of 2 μg/ml in PBS and added to the plates to be captured. The binding efficiency of the antibodies was then tested.
The EC₅₀ values were estimated by a non-linear regression using GraphPad Prism (San Diego, USA) software.

[7] = target: T3, recombinant human Fibroblast Activation …; assay: direct ELISA: rFAP coated directly on the plate, antibody titrated, OD 450 nm [continued) F]
[8] = target: T3, recombinant human Fibroblast Activation …; assay: capture ELISA: His-tagged rFAP captured by coated anti-His antibody (anti-His+rFAP), antibody titrated, OD 450 nm [continued) E]
Method: as §2

[9] = target: T5, bovine serum albumin (BSA); assay: direct ELISA: BSA coated directly on the plate [continued) H]
[10] = target: T3, recombinant human Fibroblast Activation …; assay: direct ELISA: rFAP coated directly on the plate, antibody titrated, OD 450 nm; the curve reaches no upper plateau [continued) H]
[11] = target: T3, recombinant human Fibroblast Activation …; assay: capture ELISA: His-tagged rFAP captured by coated anti-His antibody (anti-His+rFAP), antibody titrated, OD 450 nm; the curve reaches no upper plateau [continued) G]
Method: as §2

[12] = target: T3, recombinant human Fibroblast Activation …; assay: direct ELISA: rFAP coated directly on the plate, antibody titrated, OD 450 nm [continued) J]
[13] = target: T3, recombinant human Fibroblast Activation …; assay: capture ELISA: His-tagged rFAP captured by coated anti-His antibody (anti-His+rFAP), antibody titrated, OD 450 nm [continued) I]
Method: as §2

[14] = target: T5, bovine serum albumin (BSA); assay: direct ELISA: BSA coated directly on the plate [continued) D]
[15] = target: T3, recombinant human Fibroblast Activation …; assay: direct ELISA: rFAP directly coated

Binder	EC50 [3] [nM]	binding result [4]	EC50 [6] [nM]	further results
NI-206.18H2 (antibody, V domains shown, Recombinant complete human IgG1; Cy5-labelled in flow cytometry) VH: QVQLQESGPRLVKPSETLSLTCTVSGYSISNGYYWGWIRQPPGQGLEWIASVWHSGNTYHNPSLKSRVTILVDTLKNQFSLNLKSVTAADTALYYCARSYTRNDVGAFETWGQGTMVTVSS VL: SYELTQPPSVSVSPGQTARIACSGDELPKRYAYWYQQKSGQAPVLVMYEDTKRPSGIPERLSGSSSGTVTTLTISGAQVEDEADYYCYSTAPSGNHTFVFGTGTRVTVL	3.54	no binding	0.272	binding result [1]: binds; binding result [2]: binds; binding result [5]: no binding; EC50 [7]: 2.9 nM; EC50 [8]: 1.33 nM
NI-206.20A8 (antibody, V domains shown, Recombinant complete human IgG1) VH: EVQLVESGGGLVQPGGSLKLSCAGSGLDLSASAVHWVRQASGKGLEWIGRIRSKPNHYATTYLASVRGRFILSRDDSENTAYLQMNSLRTEDTAVYYCRIGILNSDHWGRGTLVTVSS VL: QSVLTQPPSASGTPGQTVIISCSGSSSNLGRKTLNWYQQLPGAAPKLLIFKNDQRASGVPDRFSASKSGTSASLTISGLQSDDEADYYCGTWDDSLDNWVFGGGTKVTVL	2.9	no binding	1.33	binding result [9]: no binding; EC50 [10]: 86.5 nM; EC50 [11]: 118 nM
NI-206.6D3 (antibody, V domains shown, Recombinant complete human IgG1; Cy5-labelled in flow cytometry) VH: EVQLVESGGGLVKPGESLRLSCAASGFTFSKAWMNWVRQGPGKGLEWVGRVKSKTDGGTTDYAAPVKGRFTISRDDSKDTVFLQMNSLKTEDTAVYYCSIQFIVVGDRGRDDQYMDVWGKGTTVTVSS VL: SYVLTQPPSVSVSPGQTARITCSGDALPKQYAFWYQQKPGQAPVIMIYKDNQRPSGIPERFSGSSSGTTVTLTISGVQTEDEADYYCQSADSTNTHVVFGGGTKLTVL	86.5	no binding	118	EC50 [12]: 3.54 nM; EC50 [13]: 0.272 nM
NI-206.59B4 (antibody, V domains shown, Recombinant complete human IgG1; Cy5-labelled in flow cytometry) VH: QVQLVQSGAEVKKPGASVKVSCKTSGYTFTDYYIHWVRQAPGQGLEWMGWINPNRGGTNYAQKFQGRVTMTRDTSIATAYMELSRLRSDDTAVYYCATASLKIAAVGTFDCWGQGTLVTVSS VL: SYELTQPPSVSVSPGQTARITCSGDALSKQYAFWFQQKPGQAPILVIYQDTKRPSGIPGRFSGSSSGTTVTLTISGAQADDEADYYCQSADSSGTYVFGTGTKVTVL	0.096	no binding	0.044	binding result [14]: no binding
NI-206.27E8 (antibody, V domains shown, Recombinant complete human IgG1; Cy5-labelled in flow cytometry) VH: EVQLVESGGGLVEPGGSLRLSCAASGFTFSDAWMNWVRQAPGKGLEWVGRIKTKSDGGTTDYAAPVRGRFSISRDDSKNTLFLEMNSLKTEDTAIYYCFITVIVVSSESPLDHWGQGTLVTVSS VL: SYELTQPPSVSVSPGQTARITCSGDELPKQYAYWYQQKPGQAPVLVIYKDRQRPSGIPERFSGSSSGTTVTLTISGVQAEDEADYYCQSAYSINTYVIFGGGTKLTVL	0.33	no binding	3.36	–
NI-206.12G4 (antibody, V domains shown, Recombinant complete human IgG1; Cy5-labelled in flow cytometry) VH: EVQLVESGGGLVKPGGSLRLSCAASGFTFSDYYMSWIRQAPGKGLEWISYISSGSSYTNYADSVKGRFTISRDNAKKSVYLEVNGLTVEDTAVYYCARVRYGDREMATIGGFDFWGQGTLVTVSS VL: SYELTQPPSVSVSPGQTARITCSGDALPKQYAYWYQQSPGQAPVLVIYKDSERPSGIPERFSGSSSGTTVTLTISGVQAEDEADYYCQSADSGGTSRIFGGGTKLTVL	1.4	no binding	–	–
NI-206.17A6 (antibody, V domains shown, Recombinant complete human IgG1 with a kappa light chain) VH: QVQLQESGPGLVRSTETLSLTCLVSGDSINSHYWSWLRQSPGRGLEWIGYIYYTGPTNYNPSLKSRVSISLGTSKDQFSLKLSSVTAADTARYYCARNKVFWRGSDFYYYMDVWGKGTTVTVSS VL: EIVLTQSPGTLSLSLGERATLSCRASQSLANNYLAWYQQKPGQAPRLLMYDASTRATGIPDRFSGSGSGTDFTLTISRLEPEDFAVYYCQQFVTSHHMYIFGQGTKVEIK	10.5	no binding	50.2	–
NI-206.22F7 (antibody, V domains shown, Recombinant complete human IgG1) VH: EVQLVETGGGVVQPGRSLRLSCAASGFSFSTHGMYWVRQPPGKGLEWVAVISYDGSDKKYADSVKGRFTISRDNSKNTVYLEMSSVRAEDTALYYCFCRRDAFDLWGQGTMVTVSS VL: SYVLTQPPSVSVSPGQTARITCSGDALPKKYAYWYQQKSGQAPVLVIYEDTKRPSGIPERFSGSSSGTMATLTISGAQVEDEADYYCYSTDSSGNYWVFGGGTEVTVL	–	–	–	binding result [15]: no binding; EC50 [4]: 0.12 nM
